The values below come from patent WO2012003472A1 (dated 2012).

For assay [1], the target named is human Notch1 displayed on the surfaces of cells (human, UniProt P46531 19-2555). Description: cell-based or functional assay.
Assay [2] addresses T1, recombinant human Notch 1/Fc fusion protein (rhNotch1-Fc) (human, UniProt P46531 19-526).
T1 construct: Bought protein; also called rhNotchl-Fc; R&D Systems Cat. No. 3647-TK-050; not shown: Fc part
Description: SPR (Biacore T100), antibody captured on anti-mouse IgG, rhNotch1-Fc as analyte, 25°C. Background: In SPR one partner is held on a chip, and binding of the other changes the refractive index at the surface.

Assay [3] addresses T2, human Notch2 displayed on the surfaces of cells (human, UniProt Q04721 26-2471).
T2 construct: whole, on cells; also called human Notch2 on CHO FlpIn cells; Notch2-dependent reporter cells
Description: electrochemiluminescence (Meso Scale Discovery) on CHO FlpIn cells.

Assay [4] deals with T3, human Notch4 displayed on the surfaces of cells (human, UniProt Q99466 24-2003).
T3 construct: whole, on cells; also called human Notch4 on CHO FlpIn cells
T3 sequence (Q99466 24-2003): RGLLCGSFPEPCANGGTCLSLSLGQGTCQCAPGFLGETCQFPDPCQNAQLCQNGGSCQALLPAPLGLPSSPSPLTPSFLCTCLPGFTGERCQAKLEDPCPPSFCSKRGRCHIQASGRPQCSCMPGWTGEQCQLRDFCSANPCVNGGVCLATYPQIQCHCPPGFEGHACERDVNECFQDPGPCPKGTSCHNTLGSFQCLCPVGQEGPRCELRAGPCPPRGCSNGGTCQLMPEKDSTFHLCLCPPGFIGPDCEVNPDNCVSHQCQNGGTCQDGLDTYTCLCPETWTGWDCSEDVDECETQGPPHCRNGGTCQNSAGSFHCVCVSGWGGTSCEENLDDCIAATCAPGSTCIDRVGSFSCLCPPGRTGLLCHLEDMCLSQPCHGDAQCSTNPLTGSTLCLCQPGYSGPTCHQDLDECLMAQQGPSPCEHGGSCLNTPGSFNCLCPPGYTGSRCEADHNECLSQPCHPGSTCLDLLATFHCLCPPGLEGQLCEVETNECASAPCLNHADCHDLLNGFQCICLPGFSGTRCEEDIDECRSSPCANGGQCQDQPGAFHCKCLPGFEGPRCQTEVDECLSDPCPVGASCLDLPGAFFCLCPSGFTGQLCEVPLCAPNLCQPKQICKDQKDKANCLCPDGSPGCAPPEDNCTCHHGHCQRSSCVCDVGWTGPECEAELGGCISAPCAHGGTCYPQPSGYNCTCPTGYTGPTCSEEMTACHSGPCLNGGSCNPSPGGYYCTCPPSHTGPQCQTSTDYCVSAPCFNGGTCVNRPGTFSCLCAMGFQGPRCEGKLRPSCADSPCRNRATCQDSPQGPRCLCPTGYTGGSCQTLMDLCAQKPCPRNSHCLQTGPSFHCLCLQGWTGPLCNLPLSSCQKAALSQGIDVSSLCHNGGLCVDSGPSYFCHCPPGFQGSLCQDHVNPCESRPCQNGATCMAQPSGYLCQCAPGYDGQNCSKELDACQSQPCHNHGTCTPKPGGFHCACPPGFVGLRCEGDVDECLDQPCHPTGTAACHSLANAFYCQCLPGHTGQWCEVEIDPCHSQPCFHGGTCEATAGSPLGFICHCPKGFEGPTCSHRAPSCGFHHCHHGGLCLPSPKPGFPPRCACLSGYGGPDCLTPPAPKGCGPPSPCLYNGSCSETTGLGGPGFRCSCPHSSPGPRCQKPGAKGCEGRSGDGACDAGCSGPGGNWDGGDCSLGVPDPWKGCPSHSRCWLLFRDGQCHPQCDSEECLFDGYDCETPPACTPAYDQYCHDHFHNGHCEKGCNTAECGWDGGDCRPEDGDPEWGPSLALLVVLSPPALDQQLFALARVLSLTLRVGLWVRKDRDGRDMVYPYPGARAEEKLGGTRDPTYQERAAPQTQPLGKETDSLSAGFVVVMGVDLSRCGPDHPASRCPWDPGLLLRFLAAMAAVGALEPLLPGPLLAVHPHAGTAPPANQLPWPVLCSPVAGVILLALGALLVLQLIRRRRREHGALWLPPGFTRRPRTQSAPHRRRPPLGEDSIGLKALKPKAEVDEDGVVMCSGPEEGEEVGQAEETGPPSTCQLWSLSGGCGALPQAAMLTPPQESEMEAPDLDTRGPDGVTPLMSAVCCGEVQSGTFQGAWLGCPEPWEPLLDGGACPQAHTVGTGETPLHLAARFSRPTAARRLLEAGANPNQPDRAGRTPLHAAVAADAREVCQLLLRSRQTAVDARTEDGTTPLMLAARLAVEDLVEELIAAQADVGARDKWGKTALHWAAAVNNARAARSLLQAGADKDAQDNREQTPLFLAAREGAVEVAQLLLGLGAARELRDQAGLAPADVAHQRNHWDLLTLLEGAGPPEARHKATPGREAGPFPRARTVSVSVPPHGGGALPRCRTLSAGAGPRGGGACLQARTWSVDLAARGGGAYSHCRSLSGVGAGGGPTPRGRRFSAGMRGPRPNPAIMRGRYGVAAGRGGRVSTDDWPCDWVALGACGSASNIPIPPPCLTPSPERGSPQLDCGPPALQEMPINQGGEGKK
The assay is described as above.

Assay [5] addresses T4, human Notch3 displayed on the surfaces of cells (human, UniProt Q9UM47 40-2321).
T4 construct: whole, on cells; also called human Notch3 on CHO FlpIn cells; Notch3-dependent reporter cells
Described as above.

A further assay addresses T5, rhNotch3-Fc (human, UniProt Q9UM47 40-467).
T5 construct: Bought protein; also called human Notch3 protein; R&D Cat. No. 1559-NT-050; not shown: Fc part
T5 sequence (looked up): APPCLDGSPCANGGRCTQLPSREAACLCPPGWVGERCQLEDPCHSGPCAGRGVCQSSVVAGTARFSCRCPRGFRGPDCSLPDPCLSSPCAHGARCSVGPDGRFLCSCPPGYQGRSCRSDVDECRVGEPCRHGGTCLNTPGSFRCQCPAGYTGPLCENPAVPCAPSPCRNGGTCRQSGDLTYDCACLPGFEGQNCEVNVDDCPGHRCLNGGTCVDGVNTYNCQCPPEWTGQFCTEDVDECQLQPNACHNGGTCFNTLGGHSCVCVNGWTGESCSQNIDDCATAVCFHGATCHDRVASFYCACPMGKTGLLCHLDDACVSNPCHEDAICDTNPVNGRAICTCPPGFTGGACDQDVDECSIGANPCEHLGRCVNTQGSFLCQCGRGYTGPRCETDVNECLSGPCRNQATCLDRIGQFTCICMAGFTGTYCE
Description: BLI (Octet QK), Notch-Fc on anti-human-Fc sensors. A general note: In BLI a coated tip is dipped into the sample, and binding shifts an interference pattern.

A further assay has as its target T6, rhNotch2-Fc (human, UniProt Q04721 26-530).
T6 construct: Bought protein; also called human Notch2 protein; R&D Cat. No. 3735-NT-050; not shown: Fc part
T6 sequence (looked up): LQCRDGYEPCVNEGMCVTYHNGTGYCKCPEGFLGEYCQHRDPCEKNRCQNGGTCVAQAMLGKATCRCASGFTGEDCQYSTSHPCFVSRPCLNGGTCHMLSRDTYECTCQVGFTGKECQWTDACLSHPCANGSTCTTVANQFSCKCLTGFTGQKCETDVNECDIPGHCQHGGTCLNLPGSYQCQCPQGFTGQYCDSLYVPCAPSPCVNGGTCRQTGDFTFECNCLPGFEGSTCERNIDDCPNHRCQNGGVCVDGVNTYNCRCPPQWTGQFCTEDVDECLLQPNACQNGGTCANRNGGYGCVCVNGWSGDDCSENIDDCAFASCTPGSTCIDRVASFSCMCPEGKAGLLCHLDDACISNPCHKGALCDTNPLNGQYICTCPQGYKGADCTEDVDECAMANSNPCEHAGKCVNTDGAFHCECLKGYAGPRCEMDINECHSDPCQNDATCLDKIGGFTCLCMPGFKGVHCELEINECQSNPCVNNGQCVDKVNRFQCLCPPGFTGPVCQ
In words: BLI (Octet QK), Notch-Fc on anti-human-Fc sensors.

For orientation: Kd means the constant that tells how readily two partners part at equilibrium.

human Notch1 displayed on the surfaces of cells, sequence (P46531 19-2555): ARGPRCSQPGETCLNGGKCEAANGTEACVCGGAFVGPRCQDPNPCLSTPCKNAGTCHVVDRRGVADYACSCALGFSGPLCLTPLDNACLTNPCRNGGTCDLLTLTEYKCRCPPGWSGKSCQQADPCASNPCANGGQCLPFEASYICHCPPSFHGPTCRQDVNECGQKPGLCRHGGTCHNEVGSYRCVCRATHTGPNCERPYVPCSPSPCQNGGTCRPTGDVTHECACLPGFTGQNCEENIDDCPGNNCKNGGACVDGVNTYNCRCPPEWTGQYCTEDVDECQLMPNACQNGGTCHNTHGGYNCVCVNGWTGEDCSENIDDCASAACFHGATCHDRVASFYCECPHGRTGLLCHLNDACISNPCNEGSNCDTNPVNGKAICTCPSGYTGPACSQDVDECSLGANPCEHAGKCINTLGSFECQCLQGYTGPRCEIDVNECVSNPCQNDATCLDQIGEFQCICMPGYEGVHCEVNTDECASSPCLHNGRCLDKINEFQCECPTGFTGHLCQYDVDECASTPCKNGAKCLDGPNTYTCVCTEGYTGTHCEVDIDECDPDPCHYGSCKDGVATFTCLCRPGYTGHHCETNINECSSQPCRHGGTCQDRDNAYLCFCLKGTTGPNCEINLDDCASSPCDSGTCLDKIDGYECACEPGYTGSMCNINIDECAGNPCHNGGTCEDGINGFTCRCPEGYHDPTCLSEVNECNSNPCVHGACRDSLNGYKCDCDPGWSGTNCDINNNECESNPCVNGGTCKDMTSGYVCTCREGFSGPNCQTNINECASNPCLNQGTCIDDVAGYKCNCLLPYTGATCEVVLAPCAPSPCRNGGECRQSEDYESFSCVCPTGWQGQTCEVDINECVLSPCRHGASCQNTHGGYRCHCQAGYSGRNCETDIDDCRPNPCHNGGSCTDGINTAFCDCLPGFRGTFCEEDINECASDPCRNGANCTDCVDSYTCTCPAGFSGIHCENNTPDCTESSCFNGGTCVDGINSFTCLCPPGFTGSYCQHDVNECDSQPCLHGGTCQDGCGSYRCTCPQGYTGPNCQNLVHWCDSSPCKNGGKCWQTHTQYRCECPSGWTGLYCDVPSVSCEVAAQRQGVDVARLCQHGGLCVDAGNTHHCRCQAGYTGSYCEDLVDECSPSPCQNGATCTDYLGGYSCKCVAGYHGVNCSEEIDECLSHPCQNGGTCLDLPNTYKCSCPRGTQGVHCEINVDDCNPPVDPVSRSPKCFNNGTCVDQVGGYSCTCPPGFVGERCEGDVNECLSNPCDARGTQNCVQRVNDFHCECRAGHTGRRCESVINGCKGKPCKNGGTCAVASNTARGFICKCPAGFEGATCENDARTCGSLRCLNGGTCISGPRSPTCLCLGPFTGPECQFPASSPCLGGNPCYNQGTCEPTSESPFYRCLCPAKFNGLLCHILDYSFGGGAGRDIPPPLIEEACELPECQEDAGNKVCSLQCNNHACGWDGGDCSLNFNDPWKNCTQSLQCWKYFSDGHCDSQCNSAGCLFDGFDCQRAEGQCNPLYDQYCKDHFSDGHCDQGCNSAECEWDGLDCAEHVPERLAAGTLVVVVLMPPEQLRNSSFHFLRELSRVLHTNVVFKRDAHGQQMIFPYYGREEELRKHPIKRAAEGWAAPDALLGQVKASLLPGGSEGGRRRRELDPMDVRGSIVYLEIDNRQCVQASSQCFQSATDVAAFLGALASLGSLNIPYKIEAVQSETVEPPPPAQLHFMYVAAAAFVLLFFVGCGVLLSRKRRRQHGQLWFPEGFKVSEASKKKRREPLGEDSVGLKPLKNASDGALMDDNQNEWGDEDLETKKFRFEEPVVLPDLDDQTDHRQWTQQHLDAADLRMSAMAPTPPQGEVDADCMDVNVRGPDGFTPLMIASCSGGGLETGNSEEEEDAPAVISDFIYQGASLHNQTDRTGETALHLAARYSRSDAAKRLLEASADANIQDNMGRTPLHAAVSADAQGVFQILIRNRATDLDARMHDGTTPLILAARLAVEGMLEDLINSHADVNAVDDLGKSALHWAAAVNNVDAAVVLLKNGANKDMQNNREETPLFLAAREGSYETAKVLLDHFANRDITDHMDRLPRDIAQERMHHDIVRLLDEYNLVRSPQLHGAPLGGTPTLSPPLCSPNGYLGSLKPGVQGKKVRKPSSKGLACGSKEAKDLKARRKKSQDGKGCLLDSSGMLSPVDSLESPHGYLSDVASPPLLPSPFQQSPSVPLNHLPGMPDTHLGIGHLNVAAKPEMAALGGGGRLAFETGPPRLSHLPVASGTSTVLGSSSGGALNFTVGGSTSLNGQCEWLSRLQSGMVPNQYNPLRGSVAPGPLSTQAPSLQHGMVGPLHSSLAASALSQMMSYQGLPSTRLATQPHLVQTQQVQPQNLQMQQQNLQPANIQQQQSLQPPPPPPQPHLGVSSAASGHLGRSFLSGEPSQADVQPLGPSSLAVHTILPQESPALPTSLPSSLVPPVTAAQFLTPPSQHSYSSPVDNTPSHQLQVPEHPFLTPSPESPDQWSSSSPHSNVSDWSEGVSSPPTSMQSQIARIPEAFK

B1: antibody 2E6 (antibody, mouse IgG1, kappa, V domains shown)
VH: EVQLQQSGAELARPGASVKMSCKASGYTFTSYWMHWVKQRPGQGLEWIGAVYPRNNDTTYNQKFKGKAKLTAVTSASTAYMALSSLTNEDSAVYYCLYFNYNFDYWGQGTTLTVSS
VL: QIVLTQSPAIMSASPGEKVTMTCSASSSVSYMHWYQQKPGSSPRLLIYDTSNLASGVPVHFSGSGSGTSYSLTIIRMEAEDAATYYCQQWSSYPYTFGGGTKLEIKR
notes: Mouse monoclonal from hybridoma, IgG1 kappa; also called 2E06; mu2E6
As for B1, in assay [1], the “EC50, Inhibition of Notch 1 Signaling, DLL1 (row printed 'DLI A')” value was found to be 0.2 nM; the “EC50, Inhibition of Notch 1 Signaling, DLL4 (row printed 'DLI A')” value was found to be 0.1 nM; the “EC50, Inhibition of Notch 1 Signaling, Jag 1” value amounted to 0.4 nM; the “EC50, Inhibition of Notch 1 Signaling, Jag 2” value is 0.1 nM. Besides, the Kd in assay [2] is not above 10 nM.

B2: antibody 2A11 (antibody, mouse IgG2b, kappa, V domains shown)
VH: QVQLQQSGPELVKPGASVKISCKASGYAFSSSWMNWVKQRPGKGLEWIGRIYPGDGDTNYNGKFKGKATLTADKSSSTAYMQLSSLTSEDSAVYFCARSGSIYYGNHGDYFDYWGQGTTLTVSS
VL: B1 VL
notes: Mouse monoclonal from hybridoma, IgG2b kappa
Consider B2, for which the binding result is “no binding (tested: 5 μg/ml antibody)” in assay [3]; “no binding (tested: 5 μg/ml antibody)” in assay [4]; “no binding (tested: 5 μg/ml antibody)” in assay [5]; “no binding (tested: 50 μg/ml antibody)” with rhNotch3-Fc; “no binding (tested: 50 μg/ml antibody)” with rhNotch2-Fc. Also, the dissociation constant Kd in assay [2] is not above 10 nM.

B3: antibody 2D11 (antibody, mouse IgG1, kappa, V domains shown)
VH: EVQLQQSGAELARPGASVKMSCKASGYTFTRYWMHWVKQRPGQGLEWIGAIYPGNSDTTYNQKFKGKAKLTAVTSASTAYMELSSLTNEDSAVYYCIYPYDYLDYWGQGTTLTVSS
VL: QIVLTQSPAIMSASPGEKVTMTCSASSSLSYMHWYQQKPGTSPKRWVYDTSKLASGVPARFSGSGSGTSYSLTISSMEAEDAATYYCHQRSSYPYTFGGGTKLEIKR
notes: Mouse monoclonal from hybridoma, IgG1 kappa
On to B3, for which the Kd in assay [2] was not above 10 nM.

B4: Hu2E6-62 (antibody, human IgG1, kappa, V domains shown)
VH: EVQLVQSGAEVAKPGASVKMSCKASGYTFTSYWMHWVKQAPGQGLEWIGAVYPRNNDATYNQKFKGKATLTADTSTSTAYMELRSLRSDDTAVYYCLYFNYNFDYWGQGTLLTVSS
VL: EIVLTQSPATMSASPGERVTMSCRASSSVSYMHWYQQKPGQSPRLLIYDTSNRASGVPAHFSGSGSGTDYTLTISSMEPEDFATYYCQQWSSYPYTFGQGTKLEIKR
Regarding B4, in assay [1], the “EC50, Inhibition of Notch 1 Signaling, DLL1 (row printed 'DLI A')” value was determined as 0.1 nM; the “EC50, Inhibition of Notch 1 Signaling, DLL4 (row printed 'DLI A')” value was determined as 0.02 nM; the “EC50, Inhibition of Notch 1 Signaling, Jag 1” value is 0.9 nM; the “EC50, Inhibition of Notch 1 Signaling, Jag 2” value turned out to be 0.5 nM.
